Results on nine molecules are retold here after patent publication US20240166765A1 (ICONIC THERAPEUTICS, published 2024).

Assay [1] addresses T1, human Tissue Factor on MDA-MB-231 cells (human, UniProt P13726 33-295). As to the kind of experiment: cell-based or functional assay.
The target of assay [2] is T1, human Tissue Factor on MDA-MB-231 cells. In words: flow cytometry, MDA-MB-231 cells; binding of 20 nM FVII-Fc-Alexa488 (competitor) left at 83 nM Ab. For orientation: Flow cytometry measures light scatter and fluorescence of single cells or particles in a stream.
For assay [3] the target is unchanged. In words: flow cytometry, MDA-MB-231 cells; binding of 20 nM FVII-Fc-Alexa488 (competitor) left at 250 nM Ab.
The target is the same in assay [4]. In words: flow cytometry, MDA-MB-231 cells; binding of 20 nM FVII-Fc-Alexa488 (competitor) left at 9.25 nM Ab.
Assay [5] has as its target T2, E. coli-derived TF ECD-His6 (Homo sapiens (Human), UniProt P13726 33-251).
T2 construct: The OmpA signal is not part of that entry; also called E.coli-derived TF protein; E. coli-derived TF-His
As to the kind of experiment: protein ELISA, plate coated with E. coli-derived TF-His. On the technique in general: ELISA stands for enzyme-linked immunosorbent assay.

Assay [6] addresses T3, Macaca mulatta TF on RF/6A cells (Macaca mulatta, UniProt P13726 33-294 (human entry)).
T3 construct: also called TF-positive Macaca mulatta RF/6A cells; cynomolgus TF (cTF)
T3 chain: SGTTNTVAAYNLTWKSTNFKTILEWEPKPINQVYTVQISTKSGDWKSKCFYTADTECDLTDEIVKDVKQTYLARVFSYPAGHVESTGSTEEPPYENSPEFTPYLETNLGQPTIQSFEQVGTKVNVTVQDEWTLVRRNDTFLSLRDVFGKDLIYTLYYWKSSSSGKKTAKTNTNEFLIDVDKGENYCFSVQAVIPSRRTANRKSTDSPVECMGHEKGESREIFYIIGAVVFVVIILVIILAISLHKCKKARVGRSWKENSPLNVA
As to the kind of experiment: flow cytometry on Macaca mulatta RF/6A cells.

The target in assay [7] is T4, Expi293-derived human TF ECD-His6 (TF-His) (human, UniProt P13726 33-251).
T4 construct: Glycosylated TF ECD-His6 made in Expi293 cells and coated on ELISA plates; also called Expi293-derived TF protein
As to the kind of experiment: protein ELISA, plate coated with Expi293-derived TF-His.

Assay [8] addresses T5, human Tissue Factor (hTF), endogenously expressed on human TF-positive cells (human, UniProt P13726 33-295). In words: cell-based or functional assay.
The target of assay [9] is T5, human Tissue Factor (hTF), endogenously …. As to the kind of experiment: flow cytometry competition on A431 cells, 100 nM unlabelled antibody, competitor 20 nM 25A-Alexa488.
The target is the same in assay [10]. As to the kind of experiment: flow cytometry competition on A431 cells, 100 nM unlabelled antibody, competitor 20 nM 43Ea-Alexa488.

B1: 25A (antibody, V domains shown)
VH: QVQLVQSGAEVKKPGASVKVSCKASGYTFDVYGISWVRQAPGQGLEWMGWIAPYNGNTNYAQKLQGRVTMTTDTSTSTAYMELRSLRSDDTAVYYCARDAGTYSPFGYGMDVWGQGTTVTVSS
VL: DIQMTQSPSTLSASVGDRVTITCRASQSISSWLAWYQQKPGKAPKLLIYKASSLESGVPSRFSGSGSGTEFTLTISSLQPDDFATYYCQQFQSLPPFTFGGGTKVEIK
notes: Human anti-TF IgG1
Take B1: in assay [1], the “% IL8, 2.56 nM Ab” value was 43%; the “% IL8, 6.4 nM Ab” value was 11%; the “% IL8, 16 nM Ab” value came out at 10%; the “% IL8, 40 nM Ab” value came out at 8%. Besides, the “% IL8, 100 nM Ab” value in [1] was found to be 9%. Further, the “% FVIIa” value in assay [2] amounted to 97%. Also, the “% FVIIa” value in [3] is 98%. In addition, in assay [4], the “% FVIIa” value is 100%.

B2: anti-TF antibody 25A (antibody, human IgG1, V domains shown)
VH: QVQLVQSGAEVKKPGASVKVSCKASGYTFDVYGISWVRQAPGQGLEWMGWIAPYNGNTNYAQKLQGRVTMTTDTSTSTAYMELRSLRSDDTAVYYCARDAGTYSPFGYGMDVWGQGTTVTVSS
VL: DIQMTQSPSTLSASVGDRVTITCRASQSISSWLAWYQQKPGKAPKLLIYKASSLESGVPSRFSGSGSGTEFTLTISSLQPDDFATYYCQQFQSLPPFTFGGGTKVEIK
notes: Human IgG1
Broadly, the EC50 is the concentration needed to bring the measured effect to its halfway point. For B2, in assay [5], the EC50 stood at 0.35 nM. The molecule further gave a 50% effective concentration (EC50) in assay [6] of 0.43 nM. The molecule further gave a concentration giving a half-maximal response (EC50) in [7] of 0.54 nM. In assay [8], the “% GM-CSF, 2.56 nM antibody, MDA-MB-231 cells + FVIIa” value (shortened to “% GM-CSF, 2.56 nM antibody”) came out at 57%; the “% GM-CSF, 6.4 nM antibody, MDA-MB-231 cells + FVIIa” value (“% GM-CSF, 6.4 nM antibody” below) is 24%; the “% GM-CSF, 16 nM antibody, MDA-MB-231 cells + FVIIa” value (“% GM-CSF, 16 nM antibody” below) was 22%; the “% GM-CSF, 40 nM antibody, MDA-MB-231 cells + FVIIa” value (shortened to “% GM-CSF, 40 nM antibody”) is 19%. In addition, in [8], the “% GM-CSF, 100 nM antibody, MDA-MB-231 cells + FVIIa” value (“% GM-CSF, 100 nM antibody” for short) is 22%. Also, in assay [9], the “% 25A binding” value stood at 3%. Besides, in assay [10], the “% 43Ea binding” value was determined as 1%.

B3: anti-TF antibody 25A3 (antibody, human IgG1, kappa, V domains shown)
VH: QVQLVQSGAEVKKPGASVKVSCKASGYTFDVYGISWVRQAPGQGLEWMGWIAPYSGNTNYAQKLQGRVTMTTDTSTSTAYMELRSLRSDDTAVYYCARDAGTYSPFGYGMDVWGQGTTVTVSS
VL: DIQMTQSPSTLSASVGDRVTITCQASQSINNWLAWYQQKPGKAPKLLIYKAYNLESGVPSRFSGSGSGTEFTLTISSLQPDDFATYYCQLFQSLPPFTFGGGTKVEIKR
notes: Human IgG1
Regarding B3, the concentration giving a half-maximal response (EC50) in assay [5] amounted to 0.36 nM; in [6], 0.27 nM; in assay [7] it was 0.47 nM.

B4: anti-TF antibody 25G (antibody, human IgG1, kappa, V domains shown)
VH: QVQLVQSGAEVKKPGASVKVSCKASGYTFRSYGISWVRQAPGQGLEWMGWVAPYNGNTNYAQKLQGRVTMTTDTSTSTAYMELRSLRSDDTAVYYCARDAGTYSPYGYGMDVWGQGTTVTVSS
VL: DIQMTQSPSTLSASVGDRVTITCRASQSISSWLAWYQQKPGKAPKLLIYKASSLESGVPSRFSGSGSGTEFTLTISSLQPDDFATYYCQQFQSLPPFTFGGGTKVEIKR
notes: Human IgG1
Consider B4, for which, in [8], the “% GM-CSF, 2.56 nM antibody” value was 77%; the “% GM-CSF, 6.4 nM antibody” value turned out to be 39%; the “% GM-CSF, 16 nM antibody” value stood at 32%; the “% GM-CSF, 40 nM antibody” value was determined as 18%. Besides, in assay [8], the “% GM-CSF, 100 nM antibody” value came to 19%. Further, in [9], the “% 25A binding” value came out at 7%. Besides, in assay [10], the “% 43Ea binding” value amounted to 3%.

B5: anti-TF antibody 25G1 (antibody, human IgG1, kappa, V domains shown)
VH: QVQLVQSGAEVKKPGASVKVSCKASGYTFRSYGISWVRQAPGQGLEWMGWVAPYSGNTNYAQKLQGRVTMTTDTSTSTAYMELRSLRSDDTAVYYCARDAGTYSPYGYGMDVWGQGTTVTVSS
VL: DIQMTQSPSTLSASVGDRVTITCRASHSIDSWLAWYQQKPGKAPKLLIYKASYLESGVPSRFSGSGSGTEFTLTISSLQPDDFATYYCQLFQSLPPFTFGGGTKVEIKR
notes: Human IgG1
Regarding B5, the results for the half-maximal effective concentration (EC50) in assay [5], in [6] and in assay [7] were 0.31 nM, 0.27 nM and 0.42 nM, respectively. In assay [8], the “% GM-CSF, 2.56 nM antibody” value is 48%.

B6: anti-TF antibody 54E (antibody, human IgG1, V domains shown)
VH: QVQLVQSGAEVKKPGASVKVSCKASGYTFANYYMHWVRQAPGQGLEWMGIINPSGGITVYAQKFQGRVTMTRDTSTSTVYMELSSLRSEDTAVYYCARGGSKVAALAFDIWGQGTMVTVSS
VL: DIQMTQSPSSLSASVGDRVTITCQASQDISNSLNWYQQKPGKAPKLLIYDASNLETGVPSRFSGSRSGTDFTFTISSLQPEDIATYYCQQYNFHPLTFGGGTKVEIK
notes: Human IgG1
In assay [5], B6 came in with an EC50 of 0.38 nM. Further, the 50% effective concentration (EC50) in assay [6] turned out to be 1.28 nM. In [7], this molecule came in with an EC50 of 0.96 nM. In [8], the “% GM-CSF, 2.56 nM antibody” value turned out to be 38%; the “% GM-CSF, 6.4 nM antibody” value turned out to be 10%; the “% GM-CSF, 16 nM antibody” value worked out at 5%; the “% GM-CSF, 40 nM antibody” value was found to be 5%. In assay [8], the “% GM-CSF, 100 nM antibody” value is 5%. Moreover, in [9], the “% 25A binding” value worked out at 99%. Besides, the “% 43Ea binding” value in assay [10] is 96%.

B7: anti-TF antibody 1F (antibody, human IgG1, V domains shown)
VH: EVQLLESGGGLVQPGGSLRLSCAASGFTFSDYAMGWVRQAPGKGLEWVSTISGSGGLTYYADSVKGRFTISRDNSKNTLYLQMNSLRAEDTAVYYCAKAPYGYYMDVWGKGTTVTVSS
VL: not shown
notes: Human IgG1
In assay [5], B7 had a concentration for a half-maximal effect (EC50) of 0.32 nM. In assay [6], the EC50 is 0.17 nM. In addition, a half-maximal response in assay [7] (EC50) required 0.41 nM. Also, in assay [8], the “% GM-CSF, 2.56 nM antibody” value was 27%; the “% GM-CSF, 6.4 nM antibody” value was 8%; the “% GM-CSF, 16 nM antibody” value stood at 6%; the “% GM-CSF, 40 nM antibody” value is 6%. For the same molecule, the “% GM-CSF, 100 nM antibody” value in [8] came to 6%. Also, the “% 25A binding” value in assay [9] was found to be 95%. In addition, the “% 43Ea binding” value in assay [10] worked out at 77%.

B8: anti-TF antibody 29E (antibody, human IgG1, V domains shown)
VH: QVQLVESGGGVVQPGRSLRLSCAASGFTFRSYGMHWVRQAPGKGLEWVAVITYDGINKYYADSVEGRFTISRDNSKNTLYLQMNSLRAEDTAVYYCARDGVYYGVYDYWGQGTLVTVSS
VL: not shown
notes: Human IgG1
Molecule B8 yielded an EC50 in assay [5] of 0.68 nM. Also, in assay [6], the 50% effective concentration (EC50) came to 0.53 nM. Besides, the EC50 in assay [7] came to 0.98 nM. In assay [8], the “% GM-CSF, 2.56 nM antibody” value was determined as 33%; the “% GM-CSF, 6.4 nM antibody” value is 9%; the “% GM-CSF, 16 nM antibody” value was 5%; the “% GM-CSF, 40 nM antibody” value was 6%. Besides, in [8], the “% GM-CSF, 100 nM antibody” value came to 6%. For the same molecule, the “% 25A binding” value in assay [9] worked out at 96%. Further, in assay [10], the “% 43Ea binding” value turned out to be 85%.

B9: anti-TF antibody 39A (antibody, human IgG1, V domains shown)
VH: QVQLVQSGAEVKKPGSSVKVSCKASGGTFSSNAIGWVRQAPGQGLEWMGSIIPIIGFANYAQKFQGRVTITADESTSTAYMELSSLRSEDTAVYYCARDSGYYYGASSFGMDVWGQGTTVTVSS
VL: EIVMTQSPATLSVSPGERATLSCRASQSVSSNLAWYQQKPGQAPRLLIYGASTRATGIPARFSGSGSGTEFTLTISSLQSEDFAVYYCEQYNNLPLTFGGGTKVEIK
notes: Human IgG1
With B9, the EC50 in assay [5] amounted to 0.34 nM. Besides, the 50% effective concentration (EC50) in assay [6] was determined as 0.27 nM. In addition, the concentration giving a half-maximal response (EC50) in [7] came to 0.45 nM. Also, in assay [8], the “% GM-CSF, 2.56 nM antibody” value was 42%; the “% GM-CSF, 6.4 nM antibody” value was 8%; the “% GM-CSF, 16 nM antibody” value worked out at 5%; the “% GM-CSF, 40 nM antibody” value worked out at 5%. The “% GM-CSF, 100 nM antibody” value in [8] was 7%. In addition, in assay [9], the “% 25A binding” value amounted to 99%.
